Here are results for two proteins from publication PMC3508906 (Channels, 2012).

The data set deals with the molecule itself. The data set can be described thus: SEC-MALS. In general terms: Size exclusion chromatography separates by hydrodynamic size, large species first.

B1: YbiO, C-terminally His-tagged (pYbiO) (natural protein, E. coli K12 MG1655, UniProt P75783 19-741, looked up)
chain: VSIPGVTTTTTTDSTTEPAPEPDIEQKKAAYGALADVLDNDTSRKELIDQLRTVAATPPAEPVPKIVPPTLVEEQTVLQKVTEVSRHYGEALSARFGQLYRNITGSPHKPFNPQTFSNALTHFSMLAVLVFGFYWLIRLCALPLYRKMGQWARQKNRERSNWLQLPAMIIGAFIIDLLLLALTLFVGQVLSDNLNAGSRTIAFQQSLFLNAFALIEFFKAVLRLIFCPNVAELRPFTIQDESARYWSRRLSWLSSLIGYGLIVAVPIISNQVNVQIGALANVIIMLCMTVWALYLIFRNKKEITQHLLNFAEHSLAFFSLFIRAFALVWHWLASAYFIVLFFFSLFDPGNSLKFMMGATVRSLAIIGIAAFVSGMFSRWLAKTITLSPHTQRNYPELQKRLNGWLSAALKTARILTVCVAVMLLLSAWGLFDFWNWLQNGAGQKTVDILIRIALILFFSAVGWTVLASLIENRLASDIHGRPLPSARTRTLLTLFRNALAVIISTITIMIVLSEIGVNIAPLLAGAGALGLAISFGSQTLVKDIITGVFIQFENGMNTGDLVTIGPLTGTVERMSIRSVGVRQDTGAYHIIPWSSITTFANFVRGIGSVVANYDVDRHEDADKANQALKDAVAELMENEEIRGLIIGEPNFAGIVGLSNTAFTLRVSFTTLPLKQWTVRFALDSQVKKHFDLAGVRAPVQTYQVLPAPGATPAEPLPPGEPTL
Regarding B1, the “stoichiometry N” value amounted to 7.

B2: YnaI, C-terminally His-tagged (pYnaI) (natural protein, E. coli, UniProt P0AEB5 1-343, looked up)
chain: MIAELFTNNALNLVIIFGSCAALILMSFWFRRGNRKRKGFLFHAVQFLIYTIIISAVGSIINYVIENYKLKFITPGVIDFICTSLIAVILTIKLFLLINQFEKQQIKKGRDITSARIMSRIIKITIIVVLVLLYGEHFGMSLSGLLTFGGIGGLAVGMAGKDILSNFFSGIMLYFDRPFSIGDWIRSPDRNIEGTVAEIGWRITKITTFDNRPLYVPNSLFSSISVENPGRMTNRRITTTIGLRYEDAAKVGVIVEAVREMLKNHPAIDQRQTLLVYFNQFADSSLNIMVYCFTKTTVWAEWLAAQQDVYLKIIDIVQSHGADFAFPSQTLYMDNITPPEQGR
As to B2, the “stoichiometry N” value came to 7.

For orientation: stoichiometry N means a count of units in the complex or per binding partner.
